For assay [1], the target named is T1, denatured recombinant human IDO protein with a 6-His tag and thrombin site linker (His-Tb-IDO) (human, UniProt P14902 1-403).
T1 construct: Immunogen and ELISA coating antigen, used in denatured form; also called denatured tagged antigen
Briefly: direct ELISA of hybridoma supernatants on plates coated with denatured His-Tb-IDO at 2 ug/mL. On the procedure: After eleven days, hybridoma culture supernatants were collected and screened by direct ELISA for specific binding to denatured His-Tb-IDO. Briefly, 96-well polystyrene microplates (Corning 9018) were coated overnight at 4C with 60 uL of denatured tagged antigen at 2 ug/mL in PBS. The plates were blocked with 200 uL/well of assay buffer containing 0.5% bovine serum albumin in PBS and washed. After the blocking step, 100 uL of supernatant from individual hybridoma culture wells were added and incubated for one hour on a plate shaker at room temperature. The plates were washed three times with PBS and 100 ul of F(ab′)₂ fragment goat anti-mouse IgG Fcγ (1:1000 dilution) (Jackson ImmunoResearch 115-036-071) was added and incubated for 1 hour at RT and washed again with PBS. The plates were then developed with 100 ul/well of ABTS HRP substrate (Surmodics ABTS-1000-01) for 5 to 10 minutes, and analyzed using a PerkinElmer EnVision microplate reader at 405 nm. The data was analyzed using TIBCO Spotfire.
For orientation: In an ELISA, binding on a coated surface is turned into a signal by an enzyme label.

Assay [2] concerns the target T2, human Indoleamine 2,3-dioxygenase (IDO) in fixed cells and tissues (human, UniProt P14902 1-403).
T2 construct: also called IDO1; human IDO
Briefly: immunohistochemistry on FFPE H1048 cells and cervical SCC tissue, HALO image analysis; antibody concentration printed on the sheet as 0.5 ug/ml, given in the legend as 0.05 ug/ml. The procedure:
To further develop a user and clinical friendly assay, mAb 1E7 was optimized for automated IHC using the Leica BondRX platform. The Bond Polymer Refine Detection System (Leica, catalog #DS9800) was used for the detection of IDO1 and all incubations were carried out at room temperature. Briefly, slides were deparaffinized and rehydrated following routine histology procedures. The slides were loaded onto the Leica BondRX automated IHC stainer and antigen retrieved with either the Bond Epitope Retrieval Solution 1 (Leica, catalog #AR9961) or 2 (Leica, catalog #AR9640) for 20 minutes at 95° C. Peroxidase block from the Bond Polymer Refine Detection kit (Leica, catalog #DS9800) was applied to the slides for 10 min, followed by non-specific binding blocking using protein block (Agilent-DAKO, catalog #X0909) supplemented with 0.5% human gamma globulins (Sigma, catalog #G-4386) for 20 min. Primary antibody 1E7 was incubated at 0.03 or 0.05 μg/ml for 60 minutes, and followed by rabbit anti-mouse linker and then anti-rabbit Poly-HRP-IgG from the Bond Polymer Refine Detection Kit for 30 min each step. […] Whole slide digital images of stained slides were captured and viewed using Aperio AT2 ScanScope and e-Slide Manager (Leica), and then analyzed by a pathologist for manual score or with Halo software (Indica) for quantitative image analysis.

T1 sequence (P14902 other isoform, or with tags, fused parts or gaps limits assumed): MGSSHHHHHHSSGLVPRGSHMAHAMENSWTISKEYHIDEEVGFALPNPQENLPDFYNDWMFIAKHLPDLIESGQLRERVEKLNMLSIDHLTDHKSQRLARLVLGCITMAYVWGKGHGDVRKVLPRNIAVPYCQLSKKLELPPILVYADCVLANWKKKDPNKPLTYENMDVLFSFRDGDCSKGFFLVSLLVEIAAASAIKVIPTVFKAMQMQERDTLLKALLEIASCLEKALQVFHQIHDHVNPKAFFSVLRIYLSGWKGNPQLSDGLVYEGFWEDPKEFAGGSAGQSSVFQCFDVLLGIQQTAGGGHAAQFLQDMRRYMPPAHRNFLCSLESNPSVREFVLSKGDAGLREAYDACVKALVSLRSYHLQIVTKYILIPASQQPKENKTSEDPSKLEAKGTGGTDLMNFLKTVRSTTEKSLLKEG
T2 sequence (P14902 whole entry): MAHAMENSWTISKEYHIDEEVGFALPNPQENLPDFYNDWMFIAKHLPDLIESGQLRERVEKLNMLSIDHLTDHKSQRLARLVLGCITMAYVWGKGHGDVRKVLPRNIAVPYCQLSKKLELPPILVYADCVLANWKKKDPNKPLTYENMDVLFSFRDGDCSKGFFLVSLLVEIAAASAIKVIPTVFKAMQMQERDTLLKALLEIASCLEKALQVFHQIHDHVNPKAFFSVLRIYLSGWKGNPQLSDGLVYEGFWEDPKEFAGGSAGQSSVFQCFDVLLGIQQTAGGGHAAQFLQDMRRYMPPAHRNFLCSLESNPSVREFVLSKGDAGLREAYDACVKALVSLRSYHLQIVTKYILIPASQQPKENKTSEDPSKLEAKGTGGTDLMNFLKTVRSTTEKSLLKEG

B1: anti-IDO monoclonal antibody 1E7 (antibody, mouse IgG1, kappa, V domains shown)
VH: QVQLQQSGAELAKPGASVKMSCKTSGYTFTSYWMHWVKQRPGQGLEWIGYINPTTGYTDCNQKFKDKATLTADKSSNTAYLQLSSLTSEDSAVYYCARSAMFGRGWGQGTTLTVSS
VL: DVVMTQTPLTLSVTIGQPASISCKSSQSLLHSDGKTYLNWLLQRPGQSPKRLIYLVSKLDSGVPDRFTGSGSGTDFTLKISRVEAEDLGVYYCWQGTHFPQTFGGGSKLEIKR
notes: also called mAb 1E7; IDO mAb 1E7
For B1, the binding result in assay [1] and in assay [2] was “binds” in each case.

(Values after US20210403602A1 (Bristol-Myers Squibb, published 2021).)
